{"source": "paper PMC2386557", "about": "“Varicellovirus UL49.5 Proteins Differentially Affect the Function of the Transporter Associated with Antigen Processing, TAP” (PLoS Pathogens, 2008)", "binders": {"B1": {"name": "radiolabeled reporter peptide RR[125I]YQKSTEL (peptide)", "peptide": "RRY(125I)QKSTEL", "notes": "also called ^125I-labeled reporter peptide; radiolabeled peptide"}}, "settings_in_all_cases": "one partner purified", "key": {"[1]": {"target": "T1, TAP complex of MJS TAP1-GFP cells (TAP1-GFP with TAP2) ( | human (endogenous in MJS), UniProt Q03518;Q03519)", "T1 construct": "also called GFP-tagged TAP", "T1 sequence 1": "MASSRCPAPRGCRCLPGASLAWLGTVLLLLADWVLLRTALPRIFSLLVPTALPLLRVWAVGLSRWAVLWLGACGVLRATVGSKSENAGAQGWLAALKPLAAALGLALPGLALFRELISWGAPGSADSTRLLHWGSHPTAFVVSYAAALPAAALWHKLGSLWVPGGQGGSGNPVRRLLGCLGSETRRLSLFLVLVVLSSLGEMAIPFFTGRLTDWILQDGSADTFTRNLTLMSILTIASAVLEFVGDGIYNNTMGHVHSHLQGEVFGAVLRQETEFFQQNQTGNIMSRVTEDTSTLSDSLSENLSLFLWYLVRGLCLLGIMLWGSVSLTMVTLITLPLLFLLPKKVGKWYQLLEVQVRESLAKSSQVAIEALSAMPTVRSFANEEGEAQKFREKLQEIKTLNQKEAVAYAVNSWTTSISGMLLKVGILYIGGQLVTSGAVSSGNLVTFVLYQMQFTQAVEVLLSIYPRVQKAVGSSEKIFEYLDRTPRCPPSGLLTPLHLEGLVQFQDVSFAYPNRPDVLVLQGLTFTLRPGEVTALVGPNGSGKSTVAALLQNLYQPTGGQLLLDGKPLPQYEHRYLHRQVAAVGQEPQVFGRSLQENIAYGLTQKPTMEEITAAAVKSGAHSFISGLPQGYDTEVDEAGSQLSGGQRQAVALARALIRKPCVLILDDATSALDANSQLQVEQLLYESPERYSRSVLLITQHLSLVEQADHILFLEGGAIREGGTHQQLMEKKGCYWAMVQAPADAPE", "T1 sequence 2": "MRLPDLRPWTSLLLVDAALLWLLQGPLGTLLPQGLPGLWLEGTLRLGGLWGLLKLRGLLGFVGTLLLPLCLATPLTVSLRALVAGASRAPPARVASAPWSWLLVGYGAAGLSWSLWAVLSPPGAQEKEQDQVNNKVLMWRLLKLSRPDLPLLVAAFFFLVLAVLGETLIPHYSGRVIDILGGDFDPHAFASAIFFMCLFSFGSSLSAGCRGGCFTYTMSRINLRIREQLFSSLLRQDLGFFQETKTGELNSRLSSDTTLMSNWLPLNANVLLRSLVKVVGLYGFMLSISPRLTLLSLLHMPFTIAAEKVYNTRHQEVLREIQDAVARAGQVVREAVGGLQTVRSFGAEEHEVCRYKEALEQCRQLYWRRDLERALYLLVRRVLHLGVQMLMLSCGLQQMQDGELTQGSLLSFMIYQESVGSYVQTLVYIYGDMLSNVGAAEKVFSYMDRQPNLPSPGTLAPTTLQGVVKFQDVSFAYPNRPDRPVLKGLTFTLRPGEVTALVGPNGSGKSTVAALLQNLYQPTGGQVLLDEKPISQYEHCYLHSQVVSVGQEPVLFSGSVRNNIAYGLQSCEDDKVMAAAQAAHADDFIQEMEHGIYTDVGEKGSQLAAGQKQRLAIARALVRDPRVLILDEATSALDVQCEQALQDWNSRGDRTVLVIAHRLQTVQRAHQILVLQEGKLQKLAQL", "assay": "radioligand binding; microsomes of control MJS TAP1-GFP cells incubated on ice with increasing concentrations of RR[125I]YQKSTEL in AP buffer (5 mM MgCl2 in PBS, pH 7.0); corrected for the signal with 200-fold excess of ICP47; triplicate"}, "[2]": {"target": "T1, TAP complex of MJS TAP1-GFP cells …", "assay": "radioligand binding"}, "[3]": {"target": "T1, TAP complex of MJS TAP1-GFP cells …", "assay": "radioligand binding; as a2, but microsomes of MJS TAP1-GFP cells that express EHV-1 UL49.5"}}, "note": "Where no end group is shown, it is not given here. The star is where a group is joined. 125I = [125I]*", "data": [{"binder": "B1", "values": [{"measurement": "Kd", "setting": "[1]", "value": "277 ± 58", "unit": "nM"}, {"measurement": "Kd", "setting": "[2]", "value": "351 ± 42", "unit": "nM"}, {"measurement": "Kd", "setting": "[3]", "value": "236 ± 71", "unit": "nM"}]}]}
